Experimental data from patent US20220251204A1 (AstraZeneca / MedImmune, published 2022).

Legend:
[1] = target: T1, human PD-1 expressed on cells (human, UniProt Q15116 25-288); experiment: cell-based or functional assay
[2] = target: T2, human OX40 expressed on cells (human, UniProt P43489 29-277); experiment: cell-based or functional assay
T2 sequence: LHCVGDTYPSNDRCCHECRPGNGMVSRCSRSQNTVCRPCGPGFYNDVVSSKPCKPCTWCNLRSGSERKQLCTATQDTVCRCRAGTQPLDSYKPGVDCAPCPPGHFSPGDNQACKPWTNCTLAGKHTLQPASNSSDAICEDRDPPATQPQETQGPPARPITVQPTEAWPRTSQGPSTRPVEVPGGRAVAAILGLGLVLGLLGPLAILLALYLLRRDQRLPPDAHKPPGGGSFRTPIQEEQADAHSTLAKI

[3] = target: T3, human TIM3 expressed on CHO cells (human, UniProt Q8TDQ0 22-301); experiment: flow cytometry, Human TIM3 CHO cells, x axis hIgG1TM (nM)
T3 construct: also called CHO cells overexpressing human TIM3
T3 sequence: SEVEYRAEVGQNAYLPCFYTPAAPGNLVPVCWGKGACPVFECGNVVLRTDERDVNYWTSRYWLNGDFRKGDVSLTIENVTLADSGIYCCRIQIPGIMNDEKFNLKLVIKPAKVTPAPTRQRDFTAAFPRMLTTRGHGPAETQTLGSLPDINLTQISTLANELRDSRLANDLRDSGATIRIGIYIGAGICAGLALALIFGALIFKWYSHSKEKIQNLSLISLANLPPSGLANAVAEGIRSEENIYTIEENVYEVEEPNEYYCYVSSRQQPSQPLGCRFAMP

human TIM3 (soluble) = target: T4, human TIM3 (soluble) (human, UniProt Q8TDQ0 22-202); experiment: SPR, BIAcore T200; antibody captured on mouse anti-huIgG-Fab, antigen injected
T4 construct: also called Biotinylated human TIM3
T4 sequence: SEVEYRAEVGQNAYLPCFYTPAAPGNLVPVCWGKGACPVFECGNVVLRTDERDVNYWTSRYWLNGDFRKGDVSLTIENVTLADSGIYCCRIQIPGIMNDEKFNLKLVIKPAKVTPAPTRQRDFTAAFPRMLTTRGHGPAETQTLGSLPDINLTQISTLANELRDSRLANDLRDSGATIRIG
Experimental: (§1) Binding experiments were carried out using a BIAcore T200 instrument (BIAcore). To capture the antibody, mouse anti-huIgG-Fab was immobilized on a CM5 chip to a target response of 2000 RU. 100 nM of the DuetMab or mAbs were flowed at 20 μL/min for 5 min to achieve approximately 100 response units of captured antibody. Antigen were then injected serially at a flow rate of 50 μl/min for 5 min. Kinetic parameters (kₒₙ and koff) and dissociation constant (KD) were calculated from a non-linear fit using BIAevaluation 4.1 software.

cynomolgus TIM3 = target: T5, cynomolgus TIM3 (cynomolgus, UniProt A0A2K5U3G7 22-195); experiment: as above
T5 construct: also called Cyno TIM3
T5 sequence: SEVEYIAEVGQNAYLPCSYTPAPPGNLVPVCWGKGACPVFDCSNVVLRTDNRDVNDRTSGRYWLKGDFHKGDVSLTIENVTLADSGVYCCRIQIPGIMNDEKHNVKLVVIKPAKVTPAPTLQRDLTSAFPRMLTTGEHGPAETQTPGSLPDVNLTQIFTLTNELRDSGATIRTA
Experimental: as §1

[4] = target: T1, human PD-1 expressed on cells; experiment: flow cytometry, HumanPD1 CHO cells, x axis hIgG1TM mAb (nM)
[5] = target: T1, human PD-1 expressed on cells; experiment: flow cytometry receptor occupancy, CHO cells expressing PD-1:CTLA-4 (40:1); free PD-1 detected with labeled anti-PD-1 mAb
[6] = target: T1, human PD-1 expressed on cells; experiment: flow cytometry, IgG binding to cultured T cells stimulated with anti-CD3+anti-CD28, CD4+ gate
[7] = target: T1, human PD-1 expressed on cells; experiment: flow cytometry receptor occupancy, CHO cells expressing PD-1:CTLA-4 (40:1), combination of the anti-PD-1 and anti-CTLA-4 mAbs; free PD-1 detected with labeled anti-PD-1 mAb; the light-triangle curve crosses 50 % at about 6 to 7 nM
[8] = target: T1, human PD-1 expressed on cells; experiment: flow cytometry, CHO cells expressing PD-1:CTLA-4 (10:1)
cynomolgus PD-1 = target: T6, cynomolgus PD-1 (cynomolgus, UniProt B0LAJ3 25-170); experiment: SPR, BIAcore T200; antibody captured on mouse anti-huIgG-Fab, antigen injected
T6 construct: also called cyno PD1
Experimental: as §1

mouse PD-1 = target: T7, mouse PD-1 (mouse, UniProt Q02242 25-167); experiment: as above
T7 construct: also called mu PD1
T7 sequence (looked up): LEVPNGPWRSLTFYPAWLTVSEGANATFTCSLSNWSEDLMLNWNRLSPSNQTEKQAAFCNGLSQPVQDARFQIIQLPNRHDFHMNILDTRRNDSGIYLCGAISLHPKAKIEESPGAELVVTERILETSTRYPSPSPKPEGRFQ
Experimental: as §1

[9] = target: T8, human PD-1 antigen (soluble) (human, UniProt Q15116 25-170); experiment: as above
T8 construct: also called hu PD1; Biotinylated human PD-1
Experimental: as §1

[10] = target: T1, human PD-1 expressed on cells; experiment: flow cytometry receptor occupancy, CHO cells expressing PD-1:CTLA-4 (10:1); free PD-1 detected with labeled anti-PD-1 mAb

T1 sequence (Q15116 25-288 limits assumed): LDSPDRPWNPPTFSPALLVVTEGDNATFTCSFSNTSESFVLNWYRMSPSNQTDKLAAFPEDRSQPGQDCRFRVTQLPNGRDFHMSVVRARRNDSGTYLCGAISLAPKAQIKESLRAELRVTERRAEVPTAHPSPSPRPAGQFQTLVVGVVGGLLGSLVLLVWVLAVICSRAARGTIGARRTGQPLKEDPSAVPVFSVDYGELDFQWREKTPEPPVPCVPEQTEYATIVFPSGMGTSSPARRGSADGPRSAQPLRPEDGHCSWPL
T8 sequence (Q15116 25-170 limits assumed): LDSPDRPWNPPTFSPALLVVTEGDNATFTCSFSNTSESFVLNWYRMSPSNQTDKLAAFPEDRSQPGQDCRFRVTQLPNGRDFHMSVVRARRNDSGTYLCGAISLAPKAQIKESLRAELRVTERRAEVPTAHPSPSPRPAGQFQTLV
T6 sequence (B0LAJ3 entry or part of it limits assumed): as the sequence (Q15116 25-170 limits assumed) above, with D2E, P10A, V19L, T35A, Q75R, T144A counted along it

B1: PD-1(LO115)/OX40 BiS2 mAb (bispecific antibody, human IgG4 S228P, kappa)
heavy: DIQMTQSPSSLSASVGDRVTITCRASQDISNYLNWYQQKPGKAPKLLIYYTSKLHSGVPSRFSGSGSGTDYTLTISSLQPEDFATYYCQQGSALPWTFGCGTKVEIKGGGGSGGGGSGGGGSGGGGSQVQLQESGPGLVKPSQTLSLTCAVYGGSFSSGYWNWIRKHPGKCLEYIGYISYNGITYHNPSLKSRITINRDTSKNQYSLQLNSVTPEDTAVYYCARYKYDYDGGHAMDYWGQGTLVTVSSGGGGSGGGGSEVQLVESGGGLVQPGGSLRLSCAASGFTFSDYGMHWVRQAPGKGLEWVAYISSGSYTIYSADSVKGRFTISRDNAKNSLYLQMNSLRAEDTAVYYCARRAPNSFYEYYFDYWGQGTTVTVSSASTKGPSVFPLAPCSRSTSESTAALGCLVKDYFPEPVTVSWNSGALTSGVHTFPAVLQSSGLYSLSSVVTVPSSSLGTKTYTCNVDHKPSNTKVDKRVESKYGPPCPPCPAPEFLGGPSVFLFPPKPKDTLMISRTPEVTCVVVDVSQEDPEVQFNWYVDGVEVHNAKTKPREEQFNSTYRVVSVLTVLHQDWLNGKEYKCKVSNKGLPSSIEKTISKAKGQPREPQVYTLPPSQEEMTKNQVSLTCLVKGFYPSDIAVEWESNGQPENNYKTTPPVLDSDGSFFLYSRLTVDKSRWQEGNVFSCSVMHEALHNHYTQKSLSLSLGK
light: QIVLTQSPATLSLSPGERATLSCSASSKHTNLYWSRHMYWYQQKPGQAPRLLIYLTSNRATGIPARFSGSGSGTDFTLTISSLEPEDFAVYYCQQWSSNPFTFGQGTKLEIKRTVAAPSVFIFPPSDEQLKSGTASVVCLLNNFYPREAKVQWKVDNALQSGNSQESVTEQDSKDSTYSLSSTLTLSKADYEKHKVYACEVTHQGLSSPVTKSFNRGEC
[1]
  PD-1/PD-L1 reporter assay, EC50 (relative light units): ~1 nM
[2]
  OX40 reporter assay, EC50 (relative light units): ~2 nM

B2: O13-1 IgG1-TM (antibody, V domains shown)
VH: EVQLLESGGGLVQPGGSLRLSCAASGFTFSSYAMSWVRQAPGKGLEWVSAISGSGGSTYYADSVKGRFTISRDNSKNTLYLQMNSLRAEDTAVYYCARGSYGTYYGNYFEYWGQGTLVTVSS
VL: SYVLTQPPSVSVAPGKTARITCGGDNIGGKSVHWYQQKPGQAPVLVIYYDSDRPSGIPERFSGSNSGNTATLTISRVEAGDEADYYCQVLDRRSDHFLFGGGTKLTVLG
notes: also called anti-TIM3 LOO131
[3]
  EC50 (read off the curve): ~0.03 nM
Human TIM3 (soluble)
  Kd: 4.01 nM
  koff: 0.00752 s⁻¹
  kon: 1.88e+06 M⁻¹ s⁻¹
Cynomolgus TIM3
  Kd: 25.7 nM
  koff: 0.0718 s⁻¹
  kon: 2.79e+06 M⁻¹ s⁻¹
[4]
  binding result: no binding (tested: about 100 nM)

B3: Anti-PD-1 (LO115) IgG (antibody, V domains shown)
VH: EVQLVESGGGLVQPGGSLRLSCAASGFTFSDYGMHWVRQAPGKGLEWVAYISSGSYTIYSADSVKGRFTISRDNAKNSLYLQMNSLRAEDTAVYYCARRAPNSFYEYYFDYWGQGTTVTVSS
VL: QIVLTQSPATLSLSPGERATLSCSASSKHTNLYWSRHMYWYQQKPGQAPRLLIYLTSNRATGIPARFSGSGSGTDFTLTISSLEPEDFAVYYCQQWSSNPFTFGQGTKLEIK
notes: also called anti-PD-1 parental monoclonal antibody
[5]
  IC50: 5.5 nM
[6]
  EC50 (read off the curve): ~1 nM
[7]
  IC50: 6.4 nM
[8]
  EC50 (read off the curve): ~2 nM
Cynomolgus PD-1
  Kd: 0.69 nM
  koff: 0.000238 s⁻¹
  kon: 346000 M⁻¹ s⁻¹
Mouse PD-1
  Kd: 447 nM
  koff: 0.0665 s⁻¹
  kon: 149000 M⁻¹ s⁻¹
[9]
  Kd: 0.79 nM
  koff: 0.000237 s⁻¹
  kon: 302000 M⁻¹ s⁻¹
[10]
  IC50: 3.9 nM
